The values below come from the supplement of paper PMC7877785.

± gives the uncertainty stated by the source.

The data set in a line: self-splicing fitness, log relative to wild type (ln ratio); higher = more splicing; Tetrahymena group I intron in knt gene, E. coli kanamycin selection, DiMSum; sequences stand for … in CUCUCU…GGAGGGAAAAGUUAUCAGGCAUGCACCUGGUAGCUAGUCUUUAAACCAAUAGAUUGCAUCGGUUUAAAAGGCAAGACCGUCAAAUUGCGGGAAAGGGGUCAACAGCCGUUCAGUACCAAGUCUCAGGGGAAACUUUGAGAUGGCCUUGCAAAGGGUAUGGUAAUAAGCUGACGGACAUGGUCCUAACCACGCAGCCAAGUCCUAAGUCAACAGAUCUUCUGUUGAUAUGGAUGCAGUUCACAGACUAAAUGUCGGUCGGGGAAGAUGUAUUCUUCUCAUAAGAUAUAGUCGGACCUCUCCUUAAUGGGAGCUAGCGGAUGAAGUGAUGCAACACUGGAGCCGCUGGGAACUAAUUUGUAUGCGAAAGUAUAUUGAUUAGUUUUGGAGUACUCGUGGUCG
The method in brief: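 Library with all eight P1ex-region intron nucleotides randomised, intron inside the knt kanamycin-resistance gene on pET-22b(+), in E. coli BL21(DE3). Cells grew overnight at 37°C or 30°C on LB agar with or without 25 μg/mL kanamycin (plus 100 μg/mL carbenicillin, 50 μM IPTG, 0.2% rhamnose), in six replicate transformations. Pooled colonies were amplicon-sequenced on Illumina HiSeq 2500. DiMSum fitness is the error-weighted combination of wild-type-normalised replicate fold changes, kanamycin versus none.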

For the sequence GACGAGCAAUAUUACGAAUU, the “self-splicing fitness (ln)” value (30 °C) is -3.49 ± 0.14 and the “self-splicing fitness (ln)” value (37 °C) was -2.55 ± 0.14.
For the sequence GACGAGCAAUAUUACGACAA, the “self-splicing fitness (ln)” value (37 °C) is -1.24 ± 0.24.
On to GACGAGCAAUAUUACGACUA, for which the “self-splicing fitness (ln)” value was -1.94 ± 0.45 (30 °C) and -0.17 ± 0.37 (37 °C).
Taken in the same sequence, the figures for GACGAGCAAUAUUACGAUCC were -0.986 ± 0.21 and -0.739 ± 0.4.
GACGAGCAAUAUUACGAUCG: the “self-splicing fitness (ln)” value is, setting by setting: (30 °C) -2.3 ± 0.23; (37 °C) -2.03 ± 0.19.
On the same counts, the results for GACGAGCAAUAUUACGCAGC are -3.4 ± 0.27 and -1.69 ± 0.28.
For GACGAGCAAUAUUACGCAUU, the “self-splicing fitness (ln)” value by setting is: (30 °C) -2.74 ± 0.21; (37 °C) -2.44 ± 0.21.
Take GACGAGCAAUAUUACGCGCG: the “self-splicing fitness (ln)” value (30 °C) was -3.15 ± 0.16 and the “self-splicing fitness (ln)” value (37 °C) was -2.7 ± 0.25.
As to GACGAGCAAUAUUACGGCAA, the “self-splicing fitness (ln)” value was -1.91 ± 0.2 (30 °C) and -0.607 ± 0.14 (37 °C).
For GACGAGCAAUAUUACGGGUG, the “self-splicing fitness (ln)” value (30 °C) was -4.16 ± 0.31 and the “self-splicing fitness (ln)” value (37 °C) is -1.89 ± 0.16.
For the sequence GACGAGCAAUAUUACGGUCG, the “self-splicing fitness (ln)” value reads like this: (30 °C) -2.31 ± 0.097; (37 °C) -0.868 ± 0.12.
For the sequence GACGAGCAAUAUUACGGUUC, the “self-splicing fitness (ln)” value (37 °C) was -3.11 ± 0.47.
For GACGAGCAAUAUUACGUAAC, the “self-splicing fitness (ln)” value by setting is: (30 °C) -3.16 ± 0.23; (37 °C) -0.414 ± 0.18.
Taken in the same sequence, the figures for GACGAGCAAUAUUACGUAAG were -3.67 ± 0.41 and -0.245 ± 0.22.
For GACGAGCAAUAUUACGUAAU, the “self-splicing fitness (ln)” value is, setting by setting: (30 °C) -2.61 ± 0.34; (37 °C) -2.16 ± 0.17.
Consider GACGAGCAAUAUUACGUCAA, for which, under “30 °C”, the “self-splicing fitness (ln)” value was -3.11 ± 0.27.
Regarding GACGAGCAAUAUUACGUGAC, the “self-splicing fitness (ln)” value by setting is: (30 °C) -2.77 ± 0.31; (37 °C) -1.48 ± 0.26.
Taken in the same sequence, the figures for GACGAGCAAUAUUACGUGGU were -2.84 ± 0.1 and -2.77 ± 0.14.
Take GACUAGCAAUAUUACGAAAU: the “self-splicing fitness (ln)” value is, setting by setting: (30 °C) -1.07 ± 0.16; (37 °C) 0.651 ± 0.26.
For the sequence GACUAGCAAUAUUACGACGC, the “self-splicing fitness (ln)” value reads like this: (30 °C) 0.125 ± 0.1; (37 °C) 0.0388 ± 0.14.
On to GACUAGCAAUAUUACGAGAA, for which the “self-splicing fitness (ln)” value (30 °C) was -1.29 ± 0.27 and the “self-splicing fitness (ln)” value (37 °C) is -1.53 ± 0.17.
For the sequence GACUAGCAAUAUUACGAGAU, the “self-splicing fitness (ln)” value is -2.93 ± 0.19 (30 °C) and -1.57 ± 0.21 (37 °C).
As to GACUAGCAAUAUUACGCAUC, the “self-splicing fitness (ln)” value was -3.16 ± 0.17 (30 °C) and -2.95 ± 0.22 (37 °C).
Consider GACUAGCAAUAUUACGCCAG, for which the “self-splicing fitness (ln)” value (30 °C) is -1.31 ± 0.22.
In the case of GACUAGCAAUAUUACGCCCU, the “self-splicing fitness (ln)” value by setting is: (30 °C) -9.77e-06 ± 0.2; (37 °C) -0.315 ± 0.21.
With GACUAGCAAUAUUACGCGUU, the “self-splicing fitness (ln)” value (37 °C) is -3.83 ± 0.39.
Consider GACUAGCAAUAUUACGCUGU, for which the “self-splicing fitness (ln)” value is -3.22 ± 0.2 (30 °C) and -2.83 ± 0.28 (37 °C).
As to GACUAGCAAUAUUACGCUUG, the “self-splicing fitness (ln)” value is -1.96 ± 0.1 (30 °C) and -1.28 ± 0.13 (37 °C).
Turning to GACUAGCAAUAUUACGGCGG, the “self-splicing fitness (ln)” value is -3.72 ± 0.21 (30 °C) and -2.14 ± 0.13 (37 °C).
In the case of GACUAGCAAUAUUACGGCUU, the “self-splicing fitness (ln)” value (30 °C) was -0.318 ± 0.099 and the “self-splicing fitness (ln)” value (37 °C) was 0.0615 ± 0.14.
Turning to GACUAGCAAUAUUACGGGGA, the “self-splicing fitness (ln)” value is, setting by setting: (30 °C) -2.06 ± 0.11; (37 °C) -0.995 ± 0.1.
Regarding GACUAGCAAUAUUACGUCAC, the “self-splicing fitness (ln)” value (30 °C) is -3.36 ± 0.4.
With GACUAGCAAUAUUACGUGGA, the “self-splicing fitness (ln)” value runs as follows: (30 °C) -1.46 ± 0.13; (37 °C) -1.07 ± 0.16.
For the sequence GACUAGCAAUAUUACGUGUG, the “self-splicing fitness (ln)” value (30 °C) was -1.12 ± 0.055 and the “self-splicing fitness (ln)” value (37 °C) is -0.793 ± 0.073.
Take GACUAGCAAUAUUACGUUAG: the “self-splicing fitness (ln)” value (30 °C) is -4.25 ± 0.23 and the “self-splicing fitness (ln)” value (37 °C) is -3.17 ± 0.23.
On the same counts, the results for GACUAGCAAUAUUACGUUGA are -2.07 ± 0.21 and -1.59 ± 0.15.
On the same counts, the results for GACUAGCAAUAUUACGUUUU are -2.43 ± 0.095 and -1.42 ± 0.11.
Taken in the same sequence, the figures for GAGAAGCAAUAUUACGAAGU were -2.98 ± 0.24 and -1.16 ± 0.27.
As to GAGAAGCAAUAUUACGAGAC, the “self-splicing fitness (ln)” value was -2.38 ± 0.3 (30 °C) and -2.64 ± 0.28 (37 °C).
Taken in the same sequence, the figures for GAGAAGCAAUAUUACGAUAG were -3.28 ± 0.14 and -2.28 ± 0.17.
On the same counts, the results for GAGAAGCAAUAUUACGAUGG are -2.74 ± 0.16 and -1.69 ± 0.18.
Taken in the same sequence, the figures for GAGAAGCAAUAUUACGAUGU were -1.12 ± 0.13 and -0.819 ± 0.21.
On to GAGAAGCAAUAUUACGCAGG, for which the “self-splicing fitness (ln)” value reads like this: (30 °C) -2.26 ± 0.16; (37 °C) -2.91 ± 0.2.
Take GAGAAGCAAUAUUACGCGGC: the “self-splicing fitness (ln)” value reads like this: (30 °C) -3.03 ± 0.23; (37 °C) -0.0876 ± 0.18.
Take GAGAAGCAAUAUUACGCGUU: the “self-splicing fitness (ln)” value is, setting by setting: (30 °C) -2.08 ± 0.23; (37 °C) -0.752 ± 0.18.
Taken in the same sequence, the figures for GAGAAGCAAUAUUACGGCCG were -0.178 ± 0.17 and -0.256 ± 0.34.
On the same counts, the results for GAGAAGCAAUAUUACGGCGU are -0.403 ± 0.12 and 0.0558 ± 0.16.
Regarding GAGAAGCAAUAUUACGUAAU, the “self-splicing fitness (ln)” value was -1.88 ± 0.1 (30 °C) and -0.98 ± 0.11 (37 °C).
For the sequence GAGAAGCAAUAUUACGUACG, the “self-splicing fitness (ln)” value reads like this: (30 °C) -1.42 ± 0.1; (37 °C) -0.572 ± 0.12.
Take GAGAAGCAAUAUUACGUCGC: the “self-splicing fitness (ln)” value (30 °C) is -2.17 ± 0.42.
For GAGAAGCAAUAUUACGUUAA, the “self-splicing fitness (ln)” value (30 °C) is -2.68 ± 0.2 and the “self-splicing fitness (ln)” value (37 °C) was -2.18 ± 0.24.
GAGAAGCAAUAUUACGUUUA: the “self-splicing fitness (ln)” value (30 °C) is -2.13 ± 0.12 and the “self-splicing fitness (ln)” value (37 °C) was -0.99 ± 0.12.
For the sequence GAGCAGCAAUAUUACGACAU, the “self-splicing fitness (ln)” value was -1.29 ± 0.013 (30 °C) and -0.608 ± 0.033 (37 °C).
Turning to GAGCAGCAAUAUUACGAUGA, the “self-splicing fitness (ln)” value is -2.62 ± 0.25 (30 °C) and -1.03 ± 0.14 (37 °C).
As for GAGCAGCAAUAUUACGCGCA, the “self-splicing fitness (ln)” value reads like this: (30 °C) -0.638 ± 0.1; (37 °C) 0.461 ± 0.12.
For the sequence GAGCAGCAAUAUUACGCGGA, the “self-splicing fitness (ln)” value was -2.11 ± 0.11 (30 °C) and -0.965 ± 0.09 (37 °C).
As to GAGCAGCAAUAUUACGGAAA, the “self-splicing fitness (ln)” value runs as follows: (30 °C) -3.08 ± 0.24; (37 °C) -2.84 ± 0.21.
On to GAGCAGCAAUAUUACGUCCA, for which the “self-splicing fitness (ln)” value reads like this: (30 °C) -1.3 ± 0.3; (37 °C) -0.418 ± 0.2.
On the same counts, the results for GAGCAGCAAUAUUACGUUGG are -0.945 ± 0.19 and -2.43 ± 0.23.
Regarding GAGGAGCAAUAUUACGACUU, the “self-splicing fitness (ln)” value was -2.79 ± 0.23 (30 °C) and -1.97 ± 0.2 (37 °C).
As for GAGGAGCAAUAUUACGAGUU, the “self-splicing fitness (ln)” value (30 °C) is -3.46 ± 0.35 and the “self-splicing fitness (ln)” value (37 °C) was -2.05 ± 0.21.
GAGGAGCAAUAUUACGAUUG: where the note is “37 °C”, the “self-splicing fitness (ln)” value is -1.93 ± 0.29.
As for GAGGAGCAAUAUUACGCAAU, the “self-splicing fitness (ln)” value (30 °C) was -2.36 ± 0.36.
